Here are results for two molecules from patent US20240166745A1 (Eli Lilly, published 2024).

The target of assay [1] is T1, Cynomolgus PD-1-ECD (cynomolgus, UniProt B0LAJ3 25-170).
T1 construct: commercial protein; also called cynomolgus PD-1-ECD (Sino Biologicals, Cat #90311-C08H); not shown: C-terminal polyhistidine tag of the vendor product (Sino Biological 90311-C08H)
Nature of the assay: SPR (Biacore T200), antibody captured on PrismA chip, ECD as analyte, 37° C. How it is done:
(§1) A Biacore® T200 (Cytiva, Marlborough, MA) was used to measure the binding kinetics and affinities of the LAG-3 antibody to the LAG-3 soluble extracellular domain (ECD) and the bispecific antibody to soluble LAG-3-ECD and PD-1-ECD (human: Sino Biologicals, Cat #10377-H08H; cynomolgus: Sino Biologicals, Cat #90311-C08H) by surface plasmon resonance. Samples were diluted in HBS-EP+ (10 mM Hepes, 150 mM NaCl, 3 mM EDTA, 0.05% Tween-20, pH 7.6) (Teknova Cat #H8022) with 5 g/L of BSA (Jackson ImmunoResearch Cat #001-000-161) running buffer. PrismA Series S Sensor chip (Cat #29650263) is purchased from Cytiva.
(§2) Binding was evaluated using multi-cycle kinetics by an antibody capture method. Each cycle was performed at either 37° C. or 25° C. at a flow rate of 10 μL/min for antibody capture to the PrismA chip and 100 μL/min for analyte association (with 120 sec contact time) and dissociation (900 sec). Each cycle consisted of the following steps: injection of bispecific antibody at 1 μg/mL in HBS-EP+ targeting Rmax values of 125 RU (LAG-3 arm), 294 RU (PD-1 arm) and 63 RU (LAG-3 antibody) on flow cell, injection of analyte in HBS-EP+(concentration range of 62.5 nM to 0.25 nM by two-fold serial dilution for both human PD-1-ECD-His (SEQ ID NO: 40) and human LAG-3-His (SEQ ID NO: 42) followed by 900-second dissociation phase, and regeneration using 10 μL of 10 mM glycine hydrochloride, pH 1.5 over a 60-second contact time utilizing a 10 μL/min flow rate. All analyte concentrations were determined utilizing monomeric molecular weight (MW) values. Association rates (kₒₙ) and dissociation rates (koff) for LAG-3-ECD and PD-1-ECD were evaluated using double referencing by flow-cell one reference subtraction in addition to 0 nM blank subtraction and fit to “1:1 (Langmuir) binding” model in the BIAevaluation software version 4.1. The dissociation constant (KD) was calculated from the binding kinetics according to the relationship KD=Koff/Kₒₙ. Stoichiometry=[RUₘₐₓ/RUcaptured]/[MWanalyte/MWantibody] where MWAntibodyA is 150 kDa. Values are reported as mean±standard deviation.

In assay [2] the target is T2, Human PD-1 ECD-His (human, UniProt Q15116 25-167).
T2 construct: Soluble analyte in SPR; the entry includes the His tag
T2 sequence (Q15116 other isoform, or with tags, fused parts or gaps): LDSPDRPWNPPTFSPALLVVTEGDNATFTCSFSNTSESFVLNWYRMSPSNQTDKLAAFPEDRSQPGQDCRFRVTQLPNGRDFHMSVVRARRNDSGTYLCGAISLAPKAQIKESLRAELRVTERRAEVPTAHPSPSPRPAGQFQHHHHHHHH
The assay is described as above. Here is the method: as §1, §2

For assay [3], the target named is T3, Human LAG-3 ECD-His (human, UniProt P18627 23-449).
T3 construct: Soluble analyte in SPR; the entry includes linker and His tag; also called human LAG-3-His
T3 sequence: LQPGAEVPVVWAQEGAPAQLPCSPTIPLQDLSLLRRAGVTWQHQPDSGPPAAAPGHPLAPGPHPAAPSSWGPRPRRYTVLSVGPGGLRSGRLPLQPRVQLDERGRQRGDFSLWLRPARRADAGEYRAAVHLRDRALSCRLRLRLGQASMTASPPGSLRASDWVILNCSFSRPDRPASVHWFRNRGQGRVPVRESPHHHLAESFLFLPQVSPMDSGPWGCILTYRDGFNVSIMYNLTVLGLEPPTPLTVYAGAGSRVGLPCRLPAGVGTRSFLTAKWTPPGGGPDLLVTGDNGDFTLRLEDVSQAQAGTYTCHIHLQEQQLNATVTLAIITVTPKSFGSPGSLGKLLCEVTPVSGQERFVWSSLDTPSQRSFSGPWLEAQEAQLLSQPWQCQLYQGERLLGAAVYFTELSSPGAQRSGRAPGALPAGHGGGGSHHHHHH
Nature of the assay: SPR (Biacore T200), antibody captured on PrismA chip, ECD as analyte, 37° C., steady-state equilibrium model (SS); 37° C., steady-state equilibrium model. A general note: SPR reads the build-up and loss of mass on a sensor chip optically.

The target of assay [4] is T3, Human LAG-3 ECD-His. As to the kind of experiment: SPR (Biacore T200), antibody captured on PrismA chip, ECD as analyte, 37° C. How it is done: as §1, §2

T1 sequence (B0LAJ3 entry or part of it limits assumed): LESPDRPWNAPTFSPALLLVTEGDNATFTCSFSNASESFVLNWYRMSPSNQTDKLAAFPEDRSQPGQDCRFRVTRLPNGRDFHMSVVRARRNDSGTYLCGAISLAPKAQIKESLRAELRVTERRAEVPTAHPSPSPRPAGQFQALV

B1: Antibody A (bispecific antibody, human IgG1, kappa, lambda)
heavy 1: not shown
light 1: DIVMTQTPLSLPVTPGEPASISCRSSQSLLDSAEGSTYLDWFLRKPGDSPQLLIYTLSYRASGVPDRFSGSGSGTDFTLKISRVEAEDVGVYYCMQRVEFPYTFGQGTKVEIKRTVAAPSVFIFPPSKEQLKSGTASVVCLLNNFYPREAKVQWKVDNALQSGNSQESVTEQDSKDSTYSLSSTLTLSKADYEKHKVYACEVTHQGLSSPVTKSFNRGEC
heavy 2: QVQLVQSGAEVKKPGASVKVSCKVSGYSLSKYDMSWVRKAPGKGLEWMGIIYTSGYTDYAQEFQGRVTMTEDTSTDTAYMELSSLRSEDTAVYYCATGNPYYTNGFNSWGQGTLVTVSSASTKGPSVFPLAPSSKSTSGGTAALGCLVKDYFPEPVTVSWNSGALTSGVATGPAVLQSSGLYSLSSVVTVPSSSLGTQTYICNVNHKPSNTKVDKRVEPKSCDKTHTCPPCPAPELLGGPSVFLFPPKPKDTLMISRTPEVTCVVVDVSHEDPEVKFNWYVDGVEVHNAKTKPREEQYNSTYRVVSVLTVLHQDWLNGKEYKCKVSNKALPAPIEKTISKAKGQPREPQVYTLPPSREEMTDNQVSLTCLVKGFYPSDIAVEWESNGQPENNYKTTPPVLMSDGSFFLASKLTVDKSRWQQGNVFSCSVMHEALHNHYTQKSLSLSPGK
light 2: RIQMTQSPSSLSASVGDRVTITCQASQSPNNLLAWYQDKPGKAPKLLIYGASDLPSGVPSRFSGSGSGTDFTLTISSLQPEDFATYYCQNNYYVGPVSYAFGGGTKVEIKGQPKAAPSVTLFPPSSEELQANKATLVCYISDFYPGAVTVAWKADSSPVKAGVETTTPSKQSNNKYAAWSYLSLTPEQWKSHRSYSCQVTHEGSTVEKTVAPTEC
notes: IgG-like bispecific with one LAG-3 arm and one PD-1 arm; also called human LAG-3/human PD-1 dual agonist bispecific antibody
With B1, in assay [1], binding was characterised by a dissociation constant (Kd) of 3.5 nM, the koff was found to be 0.0087 s⁻¹ and the kon worked out at 2.5e+06 M⁻¹ s⁻¹. In assay [2], binding was put at a Kd of 0.66 nM, the koff turned out to be 0.0017 s⁻¹ and the kon was 2.5e+06 M⁻¹ s⁻¹. Binding in assay [3] was characterised by a dissociation constant (Kd) of 5.7 nM.

B2: Antibody B (bispecific antibody, human IgG1, kappa, lambda)
heavy 1: not shown
light 1: DIVMTQTPLSLPVTPGEPASISCRSSQSLLDSAEGSTYLDWFLRKPGDSPQLLIYTLSYRASGVPDRFSGSGSGTDFTLKISRVEAEDVGVYYCMQRVEFPYTFGQGTKVEIKRTVAAPSVFIFPPSKEQLKSGTASVVCLLNNFYPREAKVQWKVDNALQSGNSQESVTEQDSKDSTYSLSSTLTLSKADYEKHKVYACEVTHQGLSSPVTKSFNRGEC
heavy 2: QVQLVQSGAEVKKPGASVKVSCKVSGYSLSKYDMSWVRKAPGKGLEWMGIIYTSGYTDYAQEFQGRVTMTEDTSTDTAYMELSSLRSEDTAVYYCATGNPYYTNGFNSWGQGTLVTVSSASTKGPSVFPLAPSSKSTSGGTAALGCLVKDYFPEPVTVSWNSGALTSGVATGPAVLQSSGLYSLSSVVTVPSSSLGTQTYICNVNHKPSNTKVDKRVEPKSCDKTHTCPPCPAPELLGGPSVFLFPPKPKDTLMISRTPEVTCVVVDVSHEDPEVKFNWYVDGVEVHNAKTKPREEQYNSTYRVVSVLTVLHQDWLNGKEYKCAVSNKALPAPIEKTISKAKGQPREPQVYTLPPSREEMTDNQVSLTCLVKGFYPSDIAVEWESNGQPENNYKTTPPVLMSDGSFFLASKLTVDKSRWQQGNVFSCSVMHEALHNHYTQKSLSLSPGK
light 2: RIQMTQSPSSLSASVGDRVTITCQASQSPNNLLAWYQDKPGKAPKLLIYGASDLPSGVPSRFSGSGSGTDFTLTISSLQPEDFATYYCQNNYYVGPVSYAFGGGTKVEIKGQPKAAPSVTLFPPSSEELQANKATLVCYISDFYPGAVTVAWKADSSPVKAGVETTTPSKQSNNKYAAWSYLSLTPEQWKSHRSYSCQVTHEGSTVEKTVAPTEC
notes: also called human LAG-3/human PD-1 dual agonist bispecific antibody
B2: in assay [4], the Kd came out at 6.1 nM, the koff is 0.34 s⁻¹ and the kon came out at 5.5e+07 M⁻¹ s⁻¹.

As usually defined, the Kd is the concentration at which binding is half-saturated. High values mean a looser complex, low ones a tighter complex. A word on the koff: it is the first-order rate constant of dissociation. By kon is commonly meant the rate constant with which the complex forms.
